US20230416329A1 (INSTITUTE OF MATERIA MEDICA CHINESE ACADEMY OF MEDICAL …, published 2023)
Each block holds one binder with its values, some of them ahead of it. Bridge positions count the residues as written; N and C are the ends. Ends that are not written are not given here.

What was measured:
PCSK9 protein [1] = molecular target: T1, PCSK9 protein (UniProt Q8NBP7 31-692, limits assumed); test: PCSK9-LDLR in vitro binding assay kit, OD450/540; peptide 10 µM; inhibition of PCSK9 binding to LDLR
T1 construct: Kit reagent; also called proprotein convertase subtilisin/kexin type 9
Protocol: (§1) Solvent control: replace polypeptide with 5 μL solvent.
(§2) ^aThe concentration of samples in the table was 50 μM.

PCSK9 protein [2] = molecular target: T1, PCSK9 protein; test: PCSK9-LDLR in vitro binding assay kit, OD450/540; peptide 100 µM; inhibition of PCSK9 binding to LDLR
Protocol: as §1, §2

[3] = molecular target: porcine pancreatic elastase (porcine, UniProt P00772 27-266); test: elastase inhibition in vitro
Chain of porcine pancreatic elastase (P00772 27-266 limits assumed): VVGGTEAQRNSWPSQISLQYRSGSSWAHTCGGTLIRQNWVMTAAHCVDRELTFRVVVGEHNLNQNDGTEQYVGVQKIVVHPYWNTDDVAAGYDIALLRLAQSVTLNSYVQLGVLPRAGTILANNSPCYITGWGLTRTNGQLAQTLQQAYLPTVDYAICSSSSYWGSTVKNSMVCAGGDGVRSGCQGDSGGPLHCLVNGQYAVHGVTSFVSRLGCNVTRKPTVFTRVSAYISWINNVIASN
Protocol: The substrates N-succinyl-Ala-Ala-Pro-Phe-p-nitroaniline (AAPFpNA), Nα—Benzoyl-L-arginine-4-nitroaniline hydrochloride (BApNA) and N-succinyl-[…] (AAApNA) are used in competitive binding reaction to determine the inhibitory activities against α-chymotrypsin, bovine trypsin, and porcine pancreatic elastase, respectively. Experiments for α-chymotrypsin and bovine trypsin inhibition were measured in 20 mM CaCl₂, 50 mM Tris-HCl buffer (pH 7.8), and that for porcine elastase inhibition was measured in 50 mM Tris-HCl buffer (pH 8.0). The concentration of the peptide was measured using optical density (OD) at 280 nm. The Michaelis constant (Kₘ) of the enzyme hydrolysis substrate is calculated from the initial rate of substrate hydrolysis at 405 nm. The absorbance value of the substrate was measured at 405 nm after complete hydrolysis. All data were processed using nonlinear regression.
(1) Added a total 190 μL of different concentrations of peptides (ECs) against elastase and reaction buffer (20 mM CaCl₂, 50 mM Tris-HCl buffer (pH 8.0)) into the pre-cold 96 well plate, followed by preheating at 37° C. for 5 min and centrifugated at 500 rpm for 1 min and allowed to stand for 4 minutes. […] Finally, added 2 μL of 100 mM AAApNA, and mixed by centrifugation at 500 rpm for 1 min. The plate was incubated at 37° C. for 60 min, and the absorbance value at 405 nm was measured. Three repetitions were made, and only reaction buffer and substrate were added in the blank control as the minimum absorption value (Min OD_{405 nm}); Only reaction buffer, enzyme and substrate were added in the negative control as the maximum absorption value (Max OD₄₀₅ nm). [0472] (2) In the 200 μL of reaction system, the final concentrations of elastase and AAApNA were 0.5 μM and 1 mM, respectively. [0473] (3) Data statistics

- Inhibitory rate (%) (PCSK9 protein [1]): 99.4%
B1: PCSK9_5CH (peptide)
peptide: WEEALDWVGFCTYSIPPQCYGTVFTS
modifications: disulfide 11-19 (inferred)
notes: Contains an anti-chymotrypsin scaffold, with a disulfide bond between its two Cys

- Inhibitory rate (%) (PCSK9 protein [2]): 93.7%
- Inhibitory rate (%) (PCSK9 protein [1]): 75.3%
B2: PCSK9_6CH (peptide)
peptide: WEEYLDYVGFCTYSIPPQCYGTVFTS
modifications: disulfide 11-19 (inferred)
notes: as for B1

- binding result [3]: binds
Binder: LCTASIPPICQ (disulfide 2-10 (inferred)) [EC12]

- binding result [3]: binds
Binder: LCTASIPPQCQ (disulfide 2-10 (inferred)) [EC18]

- binding result [3]: binds
Binder: VCTASIPPICQ (disulfide 2-10 (inferred)) [EC22]

- binding result [3]: binds
Binder: YCTASIPPICQ (disulfide 2-10 (inferred)) [EC29]

- binding result [3]: binds
Binder: LCTASIPPQCY (disulfide 2-10 (inferred)) [EC1]

- binding result [3]: binds
Binder: ICTASIPPICQ (disulfide 2-10 (inferred)) [EC23]

- binding result [3]: binds
Binder: LCTASNPPICQ (disulfide 2-10 (inferred)) [EC25]

- Inhibitory rate (%) (PCSK9 protein [2]): 101%
- Inhibitory rate (%) (PCSK9 protein [1]): 94.3%
B3: PCSK9_9EC (peptide)
peptide: TVFTSGICTASIPPICQWEEYLDWV
modifications: disulfide 8-16 (inferred)
notes: Contains an anti-elastase scaffold, with a disulfide bond between its two Cys

- Inhibitory rate (%) (PCSK9 protein [2]): 100%
- Inhibitory rate (%) (PCSK9 protein [1]): 73.1%
B4: PCSK9_2EC (peptide)
peptide: TVFTSWEEALDWVGICTASIPPICQ-OH
modifications: disulfide 16-24 (inferred)
notes: as for B3

- Inhibitory rate (%) (PCSK9 protein [2]): 95.3%
- Inhibitory rate (%) (PCSK9 protein [1]): 85.2%
B5: PCSK9_5EC (peptide)
peptide: WEEALDWVGICTASIPPICQGTVFTS
modifications: disulfide 11-19 (inferred)
notes: as for B3

- Inhibitory rate (%) (PCSK9 protein [2]): 99.4%
- Inhibitory rate (%) (PCSK9 protein [1]): 96.7%
B6: PCSK9_6EC (peptide)
peptide: WEEYLDYVGICTASIPPICQGTVFTS
modifications: disulfide 11-19 (inferred)
notes: as for B3

- Inhibitory rate (%) (PCSK9 protein [2]): 102%
- Inhibitory rate (%) (PCSK9 protein [1]): 98.4%
B7: PCSK9_9CH (peptide)
peptide: TVFTSGFCTYSIPPQCYGWEEYLDWV
modifications: disulfide 8-16 (inferred)
notes: as for B1
